We go through 2 molecules from publication PMC2267006, “Methylated DNA Recognition during the Reversal of Epigenetic Silencing Is Regulated by Cysteine and Serine Residues in the Epstein-Barr Virus Lytic Switch Protein”.

The target of data set [1] is T1, Zta (Epstein-Barr virus, UniProt P03206 1-245). The data set can be described thus: competition; vs labelled ZIIIB; rank 2 of single-methyl sites; EMSA conditions not stated (cited to earlier papers); IVT proteins in rabbit reticulocyte lysate or wheat germ; competition with 6x-100x unlabelled DNA. The settings on record: protein: ivt; tags: [35S]Met-labelled in EMSA; chain copies: 2. A general note: A gel shift assay detects complexes by their altered migration in electrophoresis.

Data set [2] has as its target T1, Zta. The data set can be described thus: competition; vs labelled ZIIIB; rank 1 of single-methyl sites; EMSA conditions not stated (cited to earlier papers); IVT proteins in rabbit reticulocyte lysate or wheat germ; competition with 6x-100x unlabelled DNA. The settings on record: protein: ivt; tags: [35S]Met-labelled in EMSA; chain copies: 2.

T1 sequence (P03206 whole entry): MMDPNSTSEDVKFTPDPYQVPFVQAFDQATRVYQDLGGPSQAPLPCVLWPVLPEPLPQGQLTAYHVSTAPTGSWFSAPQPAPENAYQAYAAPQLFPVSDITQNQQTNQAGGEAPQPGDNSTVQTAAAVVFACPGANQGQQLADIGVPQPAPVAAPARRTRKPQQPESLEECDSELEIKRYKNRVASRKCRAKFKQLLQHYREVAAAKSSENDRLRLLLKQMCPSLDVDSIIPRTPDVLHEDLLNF

B1: ZRE3 mC-2 (dsDNA)
DNA 1: GATCTATAGCATCGCGAATTTTGA
DNA 2: TCAAAATTCGCGATGCTATAGATC
modifications: single 5mC at C13 of strand 1 (position assigned from text)
With B1, the binding result in the data set with Zta [1] is reported as “binds”.

B2: ZRE3 mC1' (dsDNA)
DNA 1: GATCTATAGCATCGCGAATTTTGA
DNA 2: TCAAAATTCGCGATGCTATAGATC
modifications: single 5mC at the complement of G14 (position assigned from text)
On to B2, for which the binding result in the data set with Zta [2] is reported as “binds”.
